The assay addresses T1, mouse FAP (moFAP) expressed on 293FF cells (mouse, UniProt P97321 1-761).
T1 sequence: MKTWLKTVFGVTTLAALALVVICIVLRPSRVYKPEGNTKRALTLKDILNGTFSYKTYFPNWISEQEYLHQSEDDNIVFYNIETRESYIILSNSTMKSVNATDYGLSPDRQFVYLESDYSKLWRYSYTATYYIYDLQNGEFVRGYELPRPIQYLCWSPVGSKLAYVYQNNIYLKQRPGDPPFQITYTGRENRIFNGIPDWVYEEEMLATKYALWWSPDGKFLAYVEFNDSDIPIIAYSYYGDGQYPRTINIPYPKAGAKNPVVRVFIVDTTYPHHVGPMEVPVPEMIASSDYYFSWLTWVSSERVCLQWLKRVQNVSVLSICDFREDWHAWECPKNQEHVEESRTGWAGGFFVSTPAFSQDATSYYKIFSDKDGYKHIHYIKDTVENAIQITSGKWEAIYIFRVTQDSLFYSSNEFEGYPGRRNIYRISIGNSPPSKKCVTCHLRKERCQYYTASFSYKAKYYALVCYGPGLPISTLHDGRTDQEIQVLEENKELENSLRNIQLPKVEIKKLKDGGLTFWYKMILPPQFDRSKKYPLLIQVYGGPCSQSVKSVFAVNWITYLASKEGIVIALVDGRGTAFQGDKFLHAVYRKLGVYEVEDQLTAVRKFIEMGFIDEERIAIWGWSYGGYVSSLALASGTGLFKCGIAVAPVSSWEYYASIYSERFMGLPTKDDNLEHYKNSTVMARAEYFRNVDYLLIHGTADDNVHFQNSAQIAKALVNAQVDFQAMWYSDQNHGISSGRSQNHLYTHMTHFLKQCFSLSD
Kind of assay: FACS, 293FF cells transfected with moFAP, IgG at 2.5 ug/ml. Here is the method: The binding of all test and control antibodies to the cells was tested at a single concentration of 2.5 ug/ml. Goat-anti-human IgG F(ab)2-PE (Invitrogen, H10104) was used as secondary antibody (1:100 in FACS buffer). Ab0625 was used at 10 ug/ml and its binding was detected using Ab0250 (Becton Dickinson, 550767) (1:100 in FACS buffer). The FACS buffer containing PBS (Gibco, cat. #10010-015), 0.5% BSA (Thermo Scientific, cat. #37525), and 2 mM EDTA (Invitrogen, cat. #15575-020) was kept ice cold throughout the assay.
The target cells were harvested, counted, and centrifuged for 5 min at 300 g at 4 °C. Cells were then resuspended in FACS buffer at a concentration of 1×10⁶ cells/ml and transferred (200,000 cells/well) to a U-bottom 96-well FACS plate (BD, cat. #353910). Cells were then centrifuged for 3 min at 300 g at 4° C. and supernatant was discarded. 50 μl of primary antibody solutions were added to the cells, mixed, and incubated for 30 min at 2-8° C. in the dark. Cells were washed by adding 150 μl FACS buffer and centrifuged for 3 min at 300 g at 4° C. Supernatant was discarded, and cells were washed again by adding 200 μl FACS buffer to the plate. Cells were then centrifuged for 3 min at 300 g at 4° C. and afterwards the supernatant was discarded. 50 μl of secondary antibody solutions were added to the cells, mixed, and incubated for 30 min at 2-8° C. in the dark. […]

B1: anti-human FAP bivalent monospecific IgG comprising heavy chain variable region SEQ ID NO: 69 (antibody, V domains shown)
VH: EVQLVETGGGLIQPGGSLRLSCAASGFTVSSNYMSWVRQAPGKGLEWVSVIYSGGSTYYADSVKGRFTISRDNSKNTLYLQMNSLRAEDTAVYYCARGPTDAYPYLDYLWGQGTLVTVSS
VL: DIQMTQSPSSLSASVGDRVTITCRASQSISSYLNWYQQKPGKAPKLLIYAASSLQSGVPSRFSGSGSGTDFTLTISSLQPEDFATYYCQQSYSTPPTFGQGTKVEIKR
notes: IgG1 format, common light chain VK1-39/JK1; also called human/mouse cross-reactive FAP IgG
On to B1, for which the binding result is “binds”.

For the origin of these results see patent US20240218070A1 (MERUS N V, published 2024).
